Assay results reported in patent US6833248B2, “Human caspase-12 materials and methods” (Pharmacia & Upjohn Company, priority 2000, dated 2004).

What was measured:
GRP 78 = assay: Induction of GRP 78 in cell cultures (control Western blot); assay type: cell-based; settings: tunicamycin treatment
Experimental: (§1) Cell cultures were treated with 1 μg/ml tunicamycin or 2 μM A23187 (Calbiochem) and harvested over time. Cells were lysed in detergent buffer, cellular proteins resolved on NuPAGE gels and subjected to Western blot analysis using the same antibody as in Example 8A above. […] (BACHEM) for 40 hours.

[1] = tested on: endogenous human caspase-12; assay: Induction of endogenous caspase-12 protein by ER stress-inducing agents in SH-EP cells (Western blot); assay type: cell-based; settings: SH-EP cells, 1 μg/ml tunicamycin, harvested over time
Experimental: Reports in the literature indicated a strong activation of murine caspase-12 in response to agents which induce an endoplasmic reticulum (ER) stress response, such as tunicamycin or the Ca^2+ ionophore A23187. The activation of endogenous human caspase-12 by these ER stress-inducing agents in SH-EP and HEK293 cells was evaluated by Western blot analysis of cell lysates. SH-EP is a neuroblastoma cell line that endogenously expresses human caspase-12 at detectable levels. HEK293 is a transformed kidney cell line that lacks detectable caspase-12.
as §1
The biological significance of caspase-12 up-regulation by the ER stress-inducing agent A23187 in apoptosis was further investigated. SH-EP cells were treated with 2 μM A23187 for 40 hours to induce expression of endogenous caspase-12. One control culture was left untreated. Of the four cultures treated with A23187, one culture received 10 μg/ml cycloheximide (CHX) to block new protein synthesis and two cultures were subjected to an apoptotic stimulus, either 250 ng/ml α-Fas antibody for 24 hours or 1200 microjoules UV irradiation. The cultures were harvested after 6.5 hours. Western blot analysis of caspase-12 expression and activation was done as described above in Example 8A, using similar protein loads for each condition tested.

procaspase-3 = assay: Proteolytic activity using procaspase-3 substrate (Western blot); assay type: biochemical; settings: partially purified preparation, 2 hours at 37° C.; antibody to full-length caspase-3
Experimental: Lysates which contain recombinant caspases produced by expression in E. coli often contain fragments indicative of autoprocessing. Because the autolysis in caspase-12 lysates observed in Example 3B above is indicative of enzymatic activity, the enzymatic activity of partially purified human caspase-12 lysates was evaluated using procaspase-3 as a potential substrate. Caspase-3 is an effector caspase, which is cleaved at Asp175 by initiator caspases-8 and -9 to give the mature 19 kDa and 11 kDa subunits of the active enzyme. Processing of procaspase-3 was evaluated by Western blot analysis using an antibody that binds to full-length caspase-3 and another antibody that binds to the larger B subunit and that is specific for activated enzyme.
For use as a substrate for caspase-12, procaspase-3 was immunoprecipitated from SH-EP cell lysates using an antibody to full-length caspase-3 (Upstate Biotechnology, Inc.) and isolated on Protein G-Plus/Protein A agarose (Oncogene Science). […] Caspase-3 processing/activation by caspase-12 was detected by incubating with an anti-caspase-3 antibody (Upstate Biotechnology) which recognizes all subunits of caspase-3. Following incubation with an anti-rabbit HRP-conjugated antibody (Santa Cruz Biotechnology), immunoreactivity was detected by chemiluminescence using SuperSignal West PICO reagent (Pierce). […]

DEVD-R110 = assay: Homogeneous Caspase Assay, fluorimetric, release of rhodamine-110 from DEVD-R110; assay type: biochemical; settings: partially purified protein preparation; two-hour incubation of DEVD-R110 substrate
Text: The enzymatic activity of the partially purified hCaspase-12 and ΔCARD proteins was further evaluated in a fluorimetric assay allowing quantitation. The caspase activity of partially purified hCaspase-12 and ΔCARD protein preparations was compared to a control (non-caspase protein) preparation, using the Homogeneous Caspase Assay (Roche Biochemicals) according to the manufacturer's protocol. The assay measures the amount of free rhodamine-110, following its release from the substrate DEVD-R110, a caspase recognition sequence. Following a two-hour incubation of DEVD-R110 substrate with dilutions of the various protein preparations, free rhodamine-110 was quantitated fluorimetrically. Measured fluorescence intensity (RFU) for each preparation was 807 for hCaspase-12, 445 for ΔCARD, and 31 for the control.

calpain II = molecular target: T1, calpain II (Homo sapiens, UniProt P17655); assay: Calpain II cleavage of human caspase-12 in vitro (Western blot); assay type: biochemical; settings: affinity-purified protein, 0.012 U/μl calpain II activated by 5 mM CaCl2
T1 construct: purchased Calbiochem
T1 sequence (P17655 1-700): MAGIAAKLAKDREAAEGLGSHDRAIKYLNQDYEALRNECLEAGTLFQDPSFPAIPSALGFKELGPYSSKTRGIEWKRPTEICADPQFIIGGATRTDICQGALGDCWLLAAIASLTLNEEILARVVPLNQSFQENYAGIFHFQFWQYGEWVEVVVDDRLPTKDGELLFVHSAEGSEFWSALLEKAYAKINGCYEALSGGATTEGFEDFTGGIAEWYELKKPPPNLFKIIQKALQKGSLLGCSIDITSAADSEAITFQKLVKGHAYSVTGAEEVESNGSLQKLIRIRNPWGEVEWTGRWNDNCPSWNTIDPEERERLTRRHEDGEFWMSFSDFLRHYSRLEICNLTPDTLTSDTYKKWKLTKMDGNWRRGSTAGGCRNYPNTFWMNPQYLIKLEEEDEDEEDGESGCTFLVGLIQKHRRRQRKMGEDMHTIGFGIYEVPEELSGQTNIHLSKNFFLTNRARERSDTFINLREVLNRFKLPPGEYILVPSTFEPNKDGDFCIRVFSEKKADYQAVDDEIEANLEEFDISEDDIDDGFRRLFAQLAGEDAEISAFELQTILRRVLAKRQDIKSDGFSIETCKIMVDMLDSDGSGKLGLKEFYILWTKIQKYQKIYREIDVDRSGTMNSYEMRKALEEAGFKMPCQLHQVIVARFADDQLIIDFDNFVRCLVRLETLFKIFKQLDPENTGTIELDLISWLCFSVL
T1 sequence (P04632 1-268 partner): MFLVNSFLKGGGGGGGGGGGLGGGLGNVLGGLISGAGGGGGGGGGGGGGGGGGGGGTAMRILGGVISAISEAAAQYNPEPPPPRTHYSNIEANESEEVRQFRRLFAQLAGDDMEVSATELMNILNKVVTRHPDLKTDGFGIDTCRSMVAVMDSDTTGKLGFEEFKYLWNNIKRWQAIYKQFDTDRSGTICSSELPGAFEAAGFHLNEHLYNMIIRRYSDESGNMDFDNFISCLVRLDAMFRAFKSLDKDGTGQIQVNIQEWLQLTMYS
Experimental: The relationship between calpain and caspase-12 was explored in vitro as follows. Affinity-purified hCaspase-12 and ΔCARD caspase-12 prepared as described in Example 3B above, were incubated with 0.012 U/μl calpain II (Calbiochem) in solutions containing 150 mM NaCl, 20 mM Tris-HCl, pH 7.5, and 1 mM DTT. Calpain II was activated by the addition of 5 mM CaCl2, while corresponding control cultures were not activated by addition of calcium. Cleavage of human caspase-12 was evaluated by Western blot analysis as described in Example 8A above. […] Thus, the activation and processing of caspase-12 is closely tied to cellular calcium levels. It is anticipated that calpain will process caspase-12 by recognizing the cleavage site “ASADT” at positions 269-272 of hCaspase-12 (SEQ ID NO: 77), with cleavage occurring between residues 271 and 272. Because cellular calcium is an important regulatory feature in health and disease, the signaling pathway to caspase-12 may have multiple branches that can result in activation of this caspase.

SH-EP cells = assay: Cleavage of exogenous hCaspase-12 in transfected SH-EP cells after αFas-antibody induction of the extrinsic cell death pathway (Western blot); assay type: cell-based; settings: 250 ng/ml αFas-antibody for 18 hours
Experimental: The role of hCaspase-12 in cell death pathways was examined using cells of a neuroblastoma cell line, SH-EP. In the extrinsic (or receptor-induced) cell death pathway, caspase-8 is the apical caspase that cleaves effector caspases such as caspase-3, which cleaves many cellular substrates. Caspase activation, indicated by cleavage of the proform of the enzyme in cell lysates, was evaluated by Western blot analysis.
The expression vector pIRES-hrGFP-1a harboring the hCaspase-12 or RIK-5 gene was transfected into SH-EP cells using Superfect transfection reagent (Qiagen). At 24 hours post-transfection, 250 ng/ml αFas-antibody (CH-11, Upstate Biotechnology) was added and incubated for 18 hours to induce the extrinsic cell death pathway. Culture medium and cells were harvested and lysed in detergent buffer. Cleavage of exogenous hCaspase-12 was evaluated by Western blot analysis using anti-human caspase-12 antibody (prepared against peptide WSHHLEEIFQKVQHSFE as described in Example 4).

For tunicamycin, the “Induction of GRP 78” value (GRP 78) was “induction” and the “Induction of caspase-12 protein” value [1] was “strong induction”.

B1: ΔCARD: variant of human caspase-12 missing the CARD domain, with Ser-205 to Gly mutation (SEQ ID NO: 79) (protein, listed as Homo sapiens)
chain: SALLEIQGAQPSGKLKLCPHAHFHELKTKRADEIYPVMEKERRTCLALNIRNKEFNYLHNRNGSELDLLGMRDLLENLGYSVVIKENLTAQEMETALRQFAAHPEHQSSDSTFLVFMSHGILNGICGTKHWDQEPDVLHDDTIFEIFNNRNCQSLKDKPKVIIMQACRGNGAGIVWFTTDSGKASADTHGRLLQGNICNDAVTKAHVEKDFIAFKSSTPHNVSWRHETNGSVFISQIIYYFREYSWSHHLEEIFQKVQHSFETPNILTQLPTIERLSMTRYFYLFPGN
With B1 the “Processing of procaspase-3 to mature subunits” value (procaspase-3) was “lower molecular weight bands indicative of cleaved mature subunits were observed”, the “Measured fluorescence intensity (RFU), free rhodamine-110” value (DEVD-R110) was 445 RFU and the “Cleavage by calpain II” value (calpain II) was “cleaves”. For the same molecule, the “Cleavage of exogenous protein in cultures undergoing apoptosis” value (SH-EP cells) was “cleaved”.

B2: hCaspase-12: non-naturally occurring variant human caspase-12 with Ser-205 to Gly mutation (SEQ ID NO: 77), expressed as 6-His fusion protein (protein, listed as Homo sapiens)
chain: MADEKPSNGVLVHMVKLLIKTFLDGIFDDLMENNVLNTDEIHLIGKCLKFVVSNAENLVDDITETAQIAGKIFREHLWNSKKQLSSALLEIQGAQPSGKLKLCPHAHFHELKTKRADEIYPVMEKERRTCLALNIRNKEFNYLHNRNGSELDLLGMRDLLENLGYSVVIKENLTAQEMETALRQFAAHPEHQSSDSTFLVFMSHGILNGICGTKHWDQEPDVLHDDTIFEIFNNRNCQSLKDKPKVIIMQACRGNGAGIVWFTTDSGKASADTHGRLLQGNICNDAVTKAHVEKDFIAFKSSTPHNVSWRHETNGSVFISQIIYYFREYSWSHHLEEIFQKVQHSFETPNILTQLPTIERLSMTRYFYLFPGN
modifications: 6-His tag
B2 was tested, and the “Processing of procaspase-3 to mature subunits” value (procaspase-3) was “lower molecular weight bands indicative of cleaved mature subunits were observed”, the “Measured fluorescence intensity (RFU), free rhodamine-110” value (DEVD-R110) was 807 RFU and the “Cleavage by calpain II” value (calpain II) was “cleaves”. For the same molecule, the “Cleavage of exogenous protein in cultures undergoing apoptosis” value (SH-EP cells) was “cleaved”.
